Laboratory results published in patent publication US20110195900A1, “PEPTIDIC PTH RECEPTOR AGONISTS” (FERRING B.V., priority 2008, published 2011).
Like-named read-outs stand apart in the source and are kept apart here. Starred links: 1 amine or outer side, 2 acyl side, 3 side chain; linkers in the order of their positions; H or OH if unused. Non-standard residues stand in square brackets, D forms with d. Residues, ends and D or L forms follow the SMILES beside them. No end group written: not given here. hSer(OMe) = COCC[C@H](N[*:1])C(=O)[*:2]; 1Nal = N[C@@H](Cc1cccc2ccccc12)C(=O)O; β3hI = CC[C@H](C)[C@H](N)CC(=O)O; β3hF = N[C@H](CC(=O)O)Cc1ccccc1; Nle = CCCC[C@H](N)C(=O)O; Aib = CC(C)(N)C(=O)O; βAla = NCCC(=O)O

T1: human PTH-1 receptor (Homo sapiens, UniProt Q03431)
T1 construct: expressed in transfected cells; host or cells: HEK-293
T1 sequence (Q03431 27-593): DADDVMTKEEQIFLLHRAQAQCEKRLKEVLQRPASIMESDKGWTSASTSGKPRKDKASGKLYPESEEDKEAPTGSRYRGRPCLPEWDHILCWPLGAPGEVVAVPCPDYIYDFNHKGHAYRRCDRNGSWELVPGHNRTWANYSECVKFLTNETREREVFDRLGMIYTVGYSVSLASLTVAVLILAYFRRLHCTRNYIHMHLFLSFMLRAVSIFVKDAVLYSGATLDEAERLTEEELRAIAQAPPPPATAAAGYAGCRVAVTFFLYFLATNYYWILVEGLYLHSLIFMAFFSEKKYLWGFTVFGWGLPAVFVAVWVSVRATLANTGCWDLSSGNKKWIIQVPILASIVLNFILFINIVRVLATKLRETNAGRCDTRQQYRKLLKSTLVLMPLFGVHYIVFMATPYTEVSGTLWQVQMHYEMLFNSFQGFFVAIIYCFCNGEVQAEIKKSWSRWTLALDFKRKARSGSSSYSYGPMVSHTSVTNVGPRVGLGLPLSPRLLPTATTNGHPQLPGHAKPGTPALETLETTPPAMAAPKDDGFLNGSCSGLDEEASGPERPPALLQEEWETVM


Experiments:
human PTH-2 receptor = target: T2, human PTH-2 receptor (Homo sapiens, UniProt P49190); assay: Luciferase-based transcriptional reporter gene assay for selectivity; assay type: cell-based
T2 construct: expressed in transfected cells
Description: Agonist activity of compounds on the human PTH-1 receptor was determined in a reporter gene assay by transiently transfecting HEK-293 cells with plasmids encoding human PTH-1 receptor under control of the SV40 promoter and a luciferase reporter gene under control of cAMP responsive elements (CRE). See Himmler et al, J. Recept. Res. 13 (1993) 79-94, for further guidance on this assay. Transfected cells were exposed to serial dilutions of compounds for 4-5 hours followed by lysis of cells, determination of luciferase activity, and determination of compound efficacies and EC50 values through non-linear regression.
PTH (1-34) was used as an internal control in each experiment and compounds were tested in at least three independent experiments. To determine selectivity, compounds were tested in luciferase-based transcriptional reporter gene assays expressing the human PTH-2 receptor.

human PTH-1 receptor = target: T1, human PTH-1 receptor; assay: Reporter gene assay (CRE-luciferase) for agonist activity in transiently transfected HEK-293 cells; assay type: cell-based
In short: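 Selectivity came from luciferase transcriptional reporter assays expressing human PTH-2 receptor. PTH-1 agonism used transiently transfected HEK-293 cells carrying SV40-promoter receptor and cAMP-responsive-element luciferase; 4-5 h compound exposure, lysis, luminescence, non-linear-regression EC50/efficacy; ≥3 independent runs, PTH (1-34) control each.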

[1] = target: human parathyroid hormone receptor 1 (human, UniProt Q03431); assay: cell-based or functional assay
[2] = target: human parathyroid hormone receptor 2 (human, UniProt P49190); assay: cell-based or functional assay
[3] = Table 4 comparison data, ratio of EC50 values

T2 sequence (P49190 25-550): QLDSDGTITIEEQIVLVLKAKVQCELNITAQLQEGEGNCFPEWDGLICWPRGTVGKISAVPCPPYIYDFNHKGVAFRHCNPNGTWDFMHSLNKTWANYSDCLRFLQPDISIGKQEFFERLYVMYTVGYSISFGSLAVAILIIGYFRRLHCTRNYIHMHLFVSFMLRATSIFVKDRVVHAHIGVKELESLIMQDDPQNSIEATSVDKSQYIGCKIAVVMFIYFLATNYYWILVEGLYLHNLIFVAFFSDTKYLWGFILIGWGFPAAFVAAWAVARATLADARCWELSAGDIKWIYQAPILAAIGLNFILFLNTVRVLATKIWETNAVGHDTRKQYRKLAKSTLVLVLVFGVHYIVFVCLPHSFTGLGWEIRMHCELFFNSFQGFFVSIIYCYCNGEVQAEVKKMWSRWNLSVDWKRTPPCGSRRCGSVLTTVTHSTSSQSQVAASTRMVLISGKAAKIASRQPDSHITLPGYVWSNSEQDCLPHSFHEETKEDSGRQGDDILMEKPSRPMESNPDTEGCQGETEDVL

| Molecule | hPTHR-1 EC50 (nM), CRE-luciferase reporter gene assay [1] | hPTHR-2 EC50 (nM), luciferase reporter gene assay [2] | also measured |
| --- | --- | --- | --- |
| CCCC[C@H](NC(=O)CCNC(=O)[C@H](CC(N)=O)NC(=O)[C@H](CC(C)C)NC(=O)[C@H](Cc1c[nH]cn1)NC(=O)[C@H](CCCCN)NC(=O)CNC(=O)[C@H](CC(C)C)NC(=O)[C@H](CC(N)=O)NC(=O)[C@H](Cc1c[nH]cn1)NC(=O)[C@H](CCCC)NC(=O)[C@H](CC(C)C)NC(=O)[C@H](CCC(N)=O)NC(=O)[C@@H](NC(=O)[C@H](CCC(=O)O)NC(=O)[C@H](CO)NC(=O)[C@@H](NC(=O)C(C)(C)N)C(C)C)[C@@H](C)CC)C(=O)N[C@@H](CCC(=O)O)C(=O)N[C@@H](CCCNC(=N)N)C(=O)N[C@H](C(=O)N[C@@H](CCC(=O)O)C(=O)N[C@@H](Cc1cccc2ccccc12)C(=O)N[C@@H](CC(C)C)C(=O)N[C@@H](CCCNC(=N)N)C(=O)N[C@@H](CCCCN)C(=O)N[C@@H](CCCCN)C(=O)N[C@@H](CC(C)C)C(=O)N[C@@H](CCC(N)=O)C(=O)N[C@@H](CC(=O)O)C(=O)N[C@H](C(=O)N[C@@H](Cc1c[nH]cn1)C(=O)N[C@@H](CC(N)=O)C(=O)N[C@@H](Cc1ccccc1)C(N)=O)C(C)C)C(C)C [SEQ ID NO: 55, [Aib^1, Nle^8,18, β-Ala^17,1-Nal^23] hPTH (1-34)-NH2] (H-[Aib]VSEIQL[Nle]HNLGKHLN[βAla][Nle]ERVE[1Nal]LRKKLQDVHNF-NH2) |  |  | EC50 (human PTH-2 receptor; Table 4 comparison data, luciferase reporter gene assay, read-out: hPTHR-2 EC50): 46 nM; EC50 (human PTH-1 receptor; Table 4 comparison data, HEK-293 cells, CRE-luciferase, read-out: hPTHR-1 EC50): 0.22 nM; Selectivity hPTHR-2/hPTHR-1 (human PTH-1 receptor; [3]): 213 |
| CCCC[C@H](NC(=O)[C@H](CC(C)C)NC(=O)[C@H](CCC(N)=O)NC(=O)[C@@H](NC(=O)[C@H](CCC(=O)O)NC(=O)[C@H](CO)NC(=O)[C@@H](NC(=O)C(C)(C)N)C(C)C)[C@@H](C)CC)C(=O)N[C@@H](Cc1c[nH]cn1)C(=O)N[C@@H](CC(N)=O)C(=O)N[C@@H](CC(C)C)C(=O)NCC(=O)N[C@@H](CCCCN)C(=O)N[C@@H](Cc1c[nH]cn1)C(=O)N[C@@H](CC(C)C)C(=O)N[C@@H](CC(N)=O)C(=O)N[C@@H](CO)C(=O)N[C@H](CC(=O)N[C@@H](CCC(=O)O)C(=O)N[C@@H](CCCNC(=N)N)C(=O)N[C@H](C(=O)N[C@@H](CCC(=O)O)C(=O)N[C@@H](Cc1cccc2ccccc12)C(=O)N[C@@H](CC(C)C)C(=O)N[C@@H](CCCNC(=N)N)C(=O)N[C@@H](CCCCN)C(=O)N[C@@H](CC(C)C)C(=O)N[C@@H](CC(C)C)C(=O)N[C@@H](CCC(N)=O)C(=O)N[C@@H](CC(=O)O)C(=O)N[C@H](C(=O)N[C@@H](Cc1c[nH]cn1)C(=O)N[C@@H](CC(N)=O)C(=O)N[C@@H](Cc1ccccc1)C(N)=O)C(C)C)C(C)C)[C@@H](C)CC [SEQ ID NO: 36, [Aib^1, Nle^8, β-hIle^18,1-Nal^23, Leu^27] hPTH (1-34)-NH2] (H-[Aib]VSEIQL[Nle]HNLGKHLNS[β3hI]ERVE[1Nal]LRKLLQDVHNF-NH2) |  |  | EC50 (human PTH-2 receptor): 16 nM; EC50 (human PTH-1 receptor): 0.04 nM; hPTHR-2/hPTHR-1 (human PTH-1 receptor; Table 3, ratio of EC50 values, selectivity for hPTH-1 receptor over hPTH-2 receptor): 372; Selectivity hPTHR-2/hPTHR-1 (human PTH-1 receptor; [3]): 372 |
| [Aib]VSEIQL[Nle]HSLGKHLKS[β3hI]ERVE[1Nal]LRKLLQRV-NH2 [[Aib^1, Nle^8, Ser^10, Lys^16, β-hIle^18, 1-Nal^23, Leu^27, Arg^30] hPTH (1-31)-NH2] | 0.09 nM | 6 nM |  |
| [Aib]VSEIQL[Nle]HNLGKHLN[β3hF][hSer(OMe)]ERVE[1Nal]LRKLLQDVHNF-NH2 [[Aib^1, Nle^8, β-hPhe^17, hSer(OMe)^18, 1-Nal^23, Leu^27] hPTH-(1-34)-NH2] | 0.1 nM | 117 nM |  |
| [Aib]VSEIQL[Nle]HNLGKHLNS[β3hI]ERVE[1Nal]LRKLLQDVHNF-NH2 [[Aib^1, Nle^8, β-hIle^18, 1-Nal^23, Leu^27] hPTH (1-34)-NH2] | 0.04 nM | 16 nM |  |
| [Aib]VSEIQL[Nle]HNLGKHLKS[β3hI]ERVE[1Nal]LRKLLQRVHEF-NH2 [[Aib^1, Nle^8, Lys^16, β-hIle^18, 1-Nal^23, Leu^27, Arg^30, Glu^33] hPTH (1-34)-NH2] | 0.09 nM | 6 nM |  |
| SVSEIQL[Nle]HSLGKHLKS[β3hI]ERVE[1Nal]LRKLLQRVHEF-NH2 [[Nle^8, Ser^10, Lys^16, β-hIle^18, 1-Nal^23, Leu^27, Arg^30, Glu^33] hPTH(1-34)-NH2] | 0.12 nM | 8 nM |  |
| [Aib]VSEIQL[Nle]HSLGKHLKS[β3hI]ERVE[1Nal]LRKLLQRVHEF-NH2 [[Aib^1, Nle^8, Ser^10, Lys^16, β-hIle^18, 1-Nal^23, Leu^27, Arg^30, Glu^33] hPTH (1-34)-NH2] | 0.09 nM | 6 nM |  |
